Publication PMC2504300

T1: Grp S32A (Sulfolobus tokodaii strain 7, UniProt F9VNT4 1-150, S32A)
T1 sequence: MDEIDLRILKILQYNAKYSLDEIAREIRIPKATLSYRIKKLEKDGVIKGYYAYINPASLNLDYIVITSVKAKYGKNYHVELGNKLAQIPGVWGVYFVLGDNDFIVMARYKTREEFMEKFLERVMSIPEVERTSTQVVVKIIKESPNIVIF

T2: Grp Y77A (Sulfolobus tokodaii strain 7, UniProt F9VNT4 1-150, Y77A)
T2 sequence: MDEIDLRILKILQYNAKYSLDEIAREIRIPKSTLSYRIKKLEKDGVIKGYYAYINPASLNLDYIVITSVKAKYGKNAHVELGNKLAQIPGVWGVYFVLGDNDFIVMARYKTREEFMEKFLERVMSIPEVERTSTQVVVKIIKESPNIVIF

T3: Grp (glutamine receptor protein) (Sulfolobus tokodaii strain 7, UniProt F9VNT4 1-150)
T3 sequence: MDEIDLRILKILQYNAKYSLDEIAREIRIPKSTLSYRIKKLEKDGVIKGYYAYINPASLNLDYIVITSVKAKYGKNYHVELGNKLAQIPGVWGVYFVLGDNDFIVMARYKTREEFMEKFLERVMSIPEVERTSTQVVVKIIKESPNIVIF

B1: 18-bp grp promoter fragment (dsDNA)
DNA 1: ATATTTTTGTTTATAATA
DNA 2: TATTATAAACAAAAATAT
B2: 111-bp grp promoter (dsDNA)
DNA 1: CGTATCTTCCAAAGATTATAAGCGATTTTTTGTAAGTCTTTTTTTATTATAAGTGTTGATTAGATATAATTCAAAGTAAAGGCTTATATTTTTGTTTATAATATACAGTCT
DNA 2: AGACTGTATATTATAAACAAAAATATAAGCCTTTACTTTGAATTATATCTAATCAACACTTATAATAAAAAAAGACTTACAAAAAATCGCTTATAATCTTTGGAAGATACG

Columns and labels:
Assay in all cases: filter binding
Grp S32A = target: T1, Grp S32A
Grp Y77A = target: T2, Grp Y77A
[1] = target: T3, Grp (glutamine receptor protein)
[2] = target: T3, Grp (glutamine receptor protein); remark: listed apart in the source

Binder | binding signal (Grp S32A) | binding result (Grp Y77A) | Kd [1] [nM] | binding result [2]
B1 | ~5 fold lower binding than wild type | no binding | 188 ± 1 | –
B2 | – | – | – | binds
